Numbering of substitutions follows the chain as printed. Numbers in names are those of the source.
B1: H1.142_L1 (antibody, V domains shown)
VH: EVQLVESGGGLVQPGGSLRLSCAASGFTFSSFGMHWVRQAPGKGLEWVSYISSGSSIIYYADSVKGRFTISRDNAKNSLYLQMNSLRAEDTAVYYCARGGRLTWSPDYWGQGTLVTVSS
VL: DIVMTQSPDSLAVSLGERATINCKSSQSLLNSGNQKNYLTWYQQKPGQPPKLLIYWASTRESGVPDRFTGSGSGTDFTLTISSLQAEDVAVYYCQNDYSYPFTFGSGTKLEIKR
notes: also called VH-V111T; Kabat 99
B2: H1.143_L1 (antibody, V domains shown)
VH: B1 VH with T103I
VL: B1 VL
notes: also called VH-V111I; Kabat 99
B3: H1.146_L1 (antibody, V domains shown)
VH: B1 VH with T103Y
VL: B1 VL
notes: also called VH-V111Y; Kabat 99
B4: H1.144_L1 (antibody, V domains shown)
VH: B1 VH with T103L
VL: B1 VL
notes: also called VH-V111L; Kabat 99
B5: H1.145_L1 (antibody, V domains shown)
VH: B1 VH with T103A
VL: B1 VL
notes: also called VH-V111A; Kabat 99
B6: mAb C H1.132_L1 (antibody, V domains shown)
VH: B1 VH with R101W, T103V
VL: B1 VL
notes: copies: 2 + 2
B7: H1_L1.25 (antibody, V domains shown)
VH: B1 VH with T103V
VL: B1 VL with N34E
notes: also called VL-N34E; Kabat 28
B8: H1_L1.23 (antibody, V domains shown)
VH: B1 VH with T103V
VL: B1 VL with N34D
notes: also called VL-N34D; Kabat 28
B9: H1_L1.24 (antibody, V domains shown)
VH: B1 VH with T103V
VL: B1 VL with N34H
notes: also called VL-N34H; Kabat 28
B10: H1_L1.26 (antibody, V domains shown)
VH: B1 VH with T103V
VL: B1 VL with N34S
notes: also called VL-N34S; Kabat 28
B11: H1_L1.30 (antibody, V domains shown)
VH: B1 VH with T103V
VL: B1 VL with N34G
notes: also called VL-N34G; Kabat 28
B12: H1_L1.28 (antibody, V domains shown)
VH: B1 VH with T103V
VL: B1 VL with N34L
notes: also called VL-N34L; Kabat 28
B13: H1_L1.29 (antibody, V domains shown)
VH: B1 VH with T103V
VL: B1 VL with N34T
notes: also called VL-N34T; Kabat 28
B14: H1_L1.27 (antibody, V domains shown)
VH: B1 VH with T103V
VL: B1 VL with N34R
notes: also called VL-N34R; Kabat 28
B15: H1_L1.22 (antibody, V domains shown)
VH: B1 VH with T103V
VL: B1 VL with G33Y
notes: also called VL-G33Y; Kabat 27f

The binders below were run against T1, human PD-1-His (human, UniProt Q15116 25-167, limits assumed) (assay: Octet).
T1 construct: Antigen of the Octet assays; not shown: His tag
T1 sequence (Q15116 25-167 limits assumed): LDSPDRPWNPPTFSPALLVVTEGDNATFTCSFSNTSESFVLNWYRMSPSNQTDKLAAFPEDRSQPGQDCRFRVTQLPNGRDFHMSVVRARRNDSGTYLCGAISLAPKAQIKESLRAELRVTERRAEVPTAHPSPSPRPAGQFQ

Row | Binder | Kd [nM] | koff [s⁻¹] | kon [M⁻¹ s⁻¹]
1 | B1 | 88 | 0.0118 | 134000
2 | B2 | 35.6 | 0.00633 | 178000
3 | B3 | 102 | 0.0157 | 155000
4 | B4 | 130 | 0.0174 | 134000
5 | B5 | 110 | 0.0177 | 161000
6 | B6 | 9.63 | 0.00218 | 227000

Biological target: T1, human PD-1-His
Assay: Octet
Remark: another data set of the same source

Row | Binder | Kd [nM] | koff [s⁻¹] | kon [M⁻¹ s⁻¹]
7 | B7 | 152 | 0.0123 | 80900
8 | B8 | 57.6 | 0.006 | 104000
9 | B9 | 200 | 0.0183 | 91600
10 | B10 | 177 | 0.0229 | 130000
11 | B11 | 61.9 | 0.00901 | 146000
12 | B12 | 403 | 0.0539 | 134000
13 | B13 | 305 | 0.0405 | 133000
14 | B14 | 51.5 | 0.0117 | 227000
15 | B15 | 271 | 0.0269 | 99100
